Biological target: SARS-CoV-2 spike protein RBD (SARS-CoV-2, UniProt P0DTC2 319-541)
Assay: multiplex sVNT, RBD-coated beads, PE-hACE2 as competitor

B1: SS6V11-E7 (antibody, V domains shown)
VH: QVQLQESGPGLVKPSETLSLTCTVSGGFIGPHYWSWVRQPPGKGLEWIGYIYISGSTNYNPSLKSRLTISVDMSKSQFSLTLSSATAADTAVYYCARGGGYLETGPFEYWGQGTLVTVSS
VL: DIVMTQSPLSLPVTPGEPASISCRSSQSLLQNNGYNYLAWYLQKPGQSPQLLIYLSSTRASGVPDRFSGSGSGTDFTLKISRVEAEDVGVYYCMQSLQIPGTFGQGTRLEIK
B1: binds.

From patent publication US20260209318A1 (NATIONAL UNIVERSITY OF SINGAPORE, published 2026)
